In this assay the target is T1, Hsp70 wild type (human Hsp70 1A) (human, UniProt P0DMV8 1-641).
T1 construct: human Hsp70 1A, GenBank entry NP005336; also called Hsp70 WT; heat shock protein 70 kDa
Nature of the assay: other fluorescence titration; 0.15 µM FAM-hIAPP with 0 to 36 µM chaperone in 50 mM Tris pH 7.4, 150 mM KCl, 5 mM MgCl2, 1 h at room temperature; FAM fluorescence at 520 nm; one-site binding model. The note with it: both partners purified.

Ends that are not written are not given here. FAM = carboxyfluorescein

The Kd is the equilibrium constant for the complex coming apart.

T1 sequence (P0DMV8 whole entry): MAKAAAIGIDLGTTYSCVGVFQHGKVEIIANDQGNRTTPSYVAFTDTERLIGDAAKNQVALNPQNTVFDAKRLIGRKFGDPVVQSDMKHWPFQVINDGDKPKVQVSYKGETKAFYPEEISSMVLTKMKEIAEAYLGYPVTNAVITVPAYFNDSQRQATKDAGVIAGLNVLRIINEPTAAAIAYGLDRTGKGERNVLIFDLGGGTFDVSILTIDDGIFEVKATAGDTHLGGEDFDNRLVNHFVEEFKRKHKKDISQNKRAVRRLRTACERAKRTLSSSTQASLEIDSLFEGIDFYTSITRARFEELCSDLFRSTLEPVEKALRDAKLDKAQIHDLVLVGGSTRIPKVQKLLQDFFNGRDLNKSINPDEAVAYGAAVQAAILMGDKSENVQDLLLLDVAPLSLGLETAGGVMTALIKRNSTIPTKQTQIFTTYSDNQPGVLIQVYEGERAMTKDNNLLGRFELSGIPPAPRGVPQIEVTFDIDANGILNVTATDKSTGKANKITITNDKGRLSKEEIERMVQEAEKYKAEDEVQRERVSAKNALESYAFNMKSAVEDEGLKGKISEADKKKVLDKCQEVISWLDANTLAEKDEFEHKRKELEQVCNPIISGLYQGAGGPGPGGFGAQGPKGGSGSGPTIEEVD

B1: FAM-hIAPP (human islet amyloid polypeptide N-terminally labelled with carboxyfluorescein) (peptide, UniProt P10997 34-70, looked up)
peptide: {FAM}-KCNTATCATQRLANFLVHSSNNFGAILSSTNVGSNTY
modifications: ends and bridges not checked
notes: human islet amyloid polypeptide (hIAPP, amylin), the mature hormone cut from its precursor; also called amylin; source: bought: Phoenix Pharmaceuticals
Take B1: the Kd turned out to be 2200 ± 300 nM.

The values above are taken from publication PMC5983706, “A Rationally Designed Hsp70 Variant Rescues the Aggregation-Associated Toxicity of Human IAPP in Cultured Pancreatic Islet β-Cells” (International Journal of Molecular Sciences, 2018).
